The source of these data is patent publication US20230027639A1.

Assay [1] deals with anti-CD19 CAR on CD19 CAR-T cells (the extracellular binding domain of the CAR was FMC63scfv). The assay can be described thus: flow cytometry on CD19 CAR-T cells; mean ± SD of three parallel experiments.
For assay [2] the target is unchanged. The assay can be described thus: flow cytometry on CD19 CAR-T cells, Biotinylated Human CD19 Fc Tag detected with PE anti-Biotin; percent CAR-positive cells, replicate 2. For orientation: In flow cytometry, cells or beads pass a laser one at a time.
For assay [3] the target is unchanged. Kind of assay: flow cytometry on CD19 CAR-T cells, Biotinylated Human CD19 Fc Tag detected with PE anti-Biotin; percent CAR-positive cells, replicate 1.
The target is the same in assay [4]. The assay can be described thus: flow cytometry on CD19 CAR-T cells, Biotinylated Human CD19 Fc Tag detected with PE anti-Biotin; percent CAR-positive cells, replicate 3.
Assay [5] has the same target. The assay can be described thus: cell-based or functional assay.
Assay [6] has the same target. The assay can be described thus: flow cytometry on CD19 CAR-T cells, biotin-labelled antibody detected with PE anti-Biotin; percent CAR-positive cells, replicate 1.
Assay [7] shares this target. Kind of assay: flow cytometry on CD19 CAR-T cells, biotin-labelled antibody detected with PE anti-Biotin; percent CAR-positive cells, replicate 3.
The target is the same in assay [8]. Kind of assay: flow cytometry on CD19 CAR-T cells, biotin-labelled antibody detected with PE anti-Biotin; percent CAR-positive cells, replicate 2.

As for “Biotinylated Human CD19, Fc Tag (ACROBiosystems, model CD19-H8259) (from UniProt P15391 20-291) (Fc fusion)”, the CAR % (mean of three measurements) in assay [1] turned out to be 14.2%. For the same molecule, the values for the CAR % in assay [2], in assay [3] and in assay [4] were 12.3%, 10.3% and 20.1%, respectively.

B1: monoclonal antibody 3984-mab001-H (scFv)
scFv: EIQLQQSGPELVKPGASVKVSCKASGYSFTDYTMYWVKQSHGKSLEWIGYIDPYNGGTNYSQRFKGKATLTVDKSSSTAFMHLNSLPSEDSAVYYCANTYDNYEFAYWGQGTLVTVSAGGGGSGGGGSGGGGSDIQMTQTTSSLSASLGDRVTISCRASQDISNYLNWYQQKPDGTVKLLIYYTSRLRSGVPSRFSGSGSGADYSLTISNLEQEDIATYFCQQGDTLPYTFGGGTKLEIN
In assay [5], B1 yielded a killing rate of CD19+K562 cells by CAR-T cells (LDH release), effector:target 1:1, mAb 5 µg/ml (16.0% without mAb) of 16.1%; a killing rate of CD19+K562 cells by CAR-T cells (LDH release), effector:target 1:1, mAb 25 µg/ml (16.0% without mAb) of 6.5%; a killing rate of CD19+K562 cells by CAR-T cells (LDH release), effector:target 5:1, mAb 5 µg/ml (51.5% without mAb) of 39.1%; a killing rate of CD19+K562 cells by CAR-T cells (LDH release), effector:target 5:1, mAb 25 µg/ml (51.5% without mAb) of 32.1%.

B2: biotin-labeled monoclonal antibody Bio-3984-mab001-H (scFv)
scFv: EIQLQQSGPELVKPGASVKVSCKASGYSFTDYTMYWVKQSHGKSLEWIGYIDPYNGGTNYSQRFKGKATLTVDKSSSTAFMHLNSLPSEDSAVYYCANTYDNYEFAYWGQGTLVTVSAGGGGSGGGGSGGGGSDIQMTQTTSSLSASLGDRVTISCRASQDISNYLNWYQQKPDGTVKLLIYYTSRLRSGVPSRFSGSGSGADYSLTISNLEQEDIATYFCQQGDTLPYTFGGGTKLEIN
modifications: biotin label (Sulfo-NHS-Biotin); labelled residues not stated
For B2, the CAR % in assay [6] is 47.9%; in assay [7] it was 47.2%; in assay [8] it was 48.5%. Moreover, in assay [1], the CAR % (mean of three measurements) was determined as 47.9%.
